The RNAGym collection of RNA variant scans (doi:10.7554/elife.80360)

B1: Hammerhead Ribozyme (parent)
chain: ACCGGAUGUGCUUUCCGGUCUGAUGAGUCCGUGAGGACGAAACAG

Variants of: B1
Assay: self-cleavage, relative activity (ratio to wild type); higher = more cleavage; co-transcriptional

Variant	self-cleavage
ACCGGAUGUGCAUUCCGGUCUGAUGAGUCCGUGAGGACGAAACAG [U12A]	1.05
ACCCGAUGUGCUUUCCGGUCUGAUGAGUCCGUGAGGACGAUACAG [G4C A41U]	0.267
ACCGGAUGUGCUUUCCGGUCUGAUGAGUGCGUUAGGACGAAACAG [C29G G33U]	0.664
ACCGGCUGUGCUUUCCGGUCUGAUGAGUCCGUGGGGACGAAACAG [A6C A34G]	0.722
ACCGGCUGUGCUUUCCGGUCUGAUGAGGCCGUGAGGACGAAACAG [A6C U28G]	0.354
ACCGGAUGUGCUUUCCGGCCUGAUGAGUCCGCGAGGACGAAACAG [U19C U32C]	0.565
ACCGGAUGUGCCUUCCGGUCUUAUGAGUCCGUGAGGACGAAACAG [U12C G22U]	0.36
GCCGGAUGUGCUUUCCGGUCUGAUGAGUCCGUGAGGACGAAACAA [A1G G45A]	1.11
ACCGGAUGUCCUUUCCGGUCUGAUGAGUCCGUGAGUACGAAACAG [G10C G36U]	0.56
ACGGGAUGUGCUUUCCGGUCUGAAGAGUCCGUGAGGACGAAACAG [C3G U24A]	0.511
GCCGGAUGUGCUUUCCGGUCUGAUGAGUCCGUUAGGACGAAACAG [A1G G33U]	1.7
ACCGGAUGGGCUUUCCGGUCUGAUGAGUCCGUGAGGACGAACCAG [U9G A42C]	0.303
ACUGGAUGUGCUUUCCGGUCUGAUGAGUCCGUGAAGACGAAACAG [C3U G35A]	0.487
ACCGGAUGUGAUUUCCGGUCUGAUGAGUCCGUGAGGACGAGACAG [C11A A41G]	0.364
ACCGGAUGUGCUUUACGGUCUGAUGAGUCCGUGAGGACGAACCAG [C15A A42C]	0.291
ACCGGAUGUGCUUUCCGGUCUGAUCAGUCCGUGAGGGCGAAACAG [G25C A37G]	0.321
ACCGGAUGUGCUUUCCGGUCUGAUGUGUCCGUGAGGACGAAACAA [A26U G45A]	0.359
ACCGGAUGUGCUGUCCGGUCUGAUGAGUCCGUGAGGACGAAACAG [U13G]	0.924
UCCGGACGUGCUUUCCGGUCUGAUGAGUCCGUGAGGACGAAACAG [A1U U7C]	0.555
AACGGAUGUGCUUUCCGGUCUGAUGAGUCCGUGAGGACGACACAG [C2A A41C]	0.366
ACCGGAUGUGCUUUACGGUCUGAUGAGUCCGUGAGGACGAAACCG [C15A A44C]	0.404
ACCGGAUGUGGUUUCCGGUCUGAUGGGUCCGUGAGGACGAAACAG [C11G A26G]	0.393
ACCGGAUGUGCUUUCCGGUCUGAUGAGACCGUGAGGACUAAACAG [U28A G39U]	0.301

Variant	self-cleavage
ACCAGAUGUGCUUUCCGGUCUGAAGAGUCCGUGAGGACGAAACAG [G4A U24A]	0.682
ACCGGAUGUGCUUUGCGGUCUGAUGAGUCCGUCAGGACGAAACAG [C15G G33C]	1.04
ACCCGAUGUGCUUUCCGUUCUGAUGAGUCCGUGAGGACGAAACAG [G4C G18U]	0.284
ACCGGAUGUGCUUUCCGGUCUGGUGAGUCCGUGAGGACGAAACCG [A23G A44C]	0.353
UCCGGAUGUGCUUUCCGGUGUGAUGAGUCCGUGAGGACGAAACAG [A1U C20G]	0.412
ACCGGAUGUGCUUUCCGGUCUGAUGAGUCCGAGAGGAUGAAACAG [U32A C38U]	0.915
ACCGGAUGUGCUUUCAGGUCUGAGGAGUCCGUGAGGACGAAACAG [C16A U24G]	0.87
ACCGGAUGUGCUUUCGGGUCUGAUGAGUCCGUGCGGACGAAACAG [C16G A34C]	0.647
AGAGGAUGUGCUUUCCGGUCUGAUGAGUCCGUGAGGACGAAACAG [C2G C3A]	0.283
ACCGGGUGUGCUUUCCGGUCUGAUGAGUCCGUGAGGGCGAAACAG [A6G A37G]	0.674
ACCGGAUGUGCUUUCCGUUCUGAUGAGACCGUGAGGACGAAACAG [G18U U28A]	0.461
ACCGGAUGUGCUUUCCGGUCUGAUGAUUACGUGAGGACGAAACAG [G27U C29A]	0.312
ACCGGAUGUGCUUUCCGGUCUGCUGAGUCCGUGAGGACGAAGCAG [A23C A42G]	0.392
ACCGGAUGUACUUUCCGGUUUGAUGAGUCCGUGAGGACGAAACAG [G10A C20U]	0.543
ACCGGAUGUGCGUUCCGGCCUGAUGAGUCCGUGAGGACGAAACAG [U12G U19C]	0.524
ACGGGAUGUGCUUUCCGGUCUGAUGCGUCCGUGAGGACGAAACAG [C3G A26C]	0.268
ACCGGAUGUGCUUUCCGGUCUGAUGCGUCCGUGAGGACGAAACAA [A26C G45A]	0.304
ACCGGAUGUGCUUCCCGGUCUGAGGAGUCCGUGAGGACGAAACAG [U14C U24G]	0.816
ACCGGAUGUGCUUUCCGGUCUGAUGAGUCGGUGAGGACGAGACAG [C30G A41G]	0.349
ACCAGAUGUGCUUUCCGGUCUGAUGAGUCCGUGAGGACGAAAAAG [G4A C43A]	0.313
ACCGGAAGAGCUUUCCGGUCUGAUGAGUCCGUGAGGACGAAACAG [U7A U9A]	0.874
AACGGAUGUGCUUCCCGGUCUGAUGAGUCCGUGAGGACGAAACAG [C2A U14C]	0.397
ACCGGAUGUGCUGUCCGGUCUGAUGCGUCCGUGAGGACGAAACAG [U13G A26C]	0.383

Variant	self-cleavage
ACCGGAUGUGCUUUCCGGGCUGAUGAGUCCGUGAGGACUAAACAG [U19G G39U]	0.305
ACCGGAUGUACUUUCAGGUCUGAUGAGUCCGUGAGGACGAAACAG [G10A C16A]	1.4
ACGGGAUGUGCUUUCCGGUCUGAUGAGUCCAUGAGGACGAAACAG [C3G G31A]	0.636
ACGGGAUGUGCUUUCGGGUCUGAUGAGUCCGUGAGGACGAAACAG [C3G C16G]	0.258
ACCGGUUGUGCUUUCCGGUCUGAUGAGUCCUUGAGGACGAAACAG [A6U G31U]	0.889
ACCGCAUGUGCUUCCCGGUCUGAUGAGUCCGUGAGGACGAAACAG [G5C U14C]	0.429
ACCGGAUGUGCUUUCCGGUCUGAUGAGUCAGUGAGGACCAAACAG [C30A G39C]	0.303
ACCGGAUGUGCUUUGCGGUCUGAUGAGUCCGUGAGGGCGAAACAG [C15G A37G]	0.535
ACCGGAUGUGCUUUCCGGUCUGAUGGGUCCGUGAGGAAGAAACAG [A26G C38A]	0.325
ACCGGAUGUGCUUUCCGCUCAGAUGAGUCCGUGAGGACGAAACAG [G18C U21A]	0.333
GCCGGAUGUGCUUUCCGGUCUGAUGAGUCCGUGAGGACGAAGCAG [A1G A42G]	0.344
ACCGGAUGUGCUUCCCGGUCUGAUGAGUCCGUGAGGCCGAAACAG [U14C A37C]	0.436
ACCGGAUGUGCUUCCCGUUCUGAUGAGUCCGUGAGGACGAAACAG [U14C G18U]	0.413
ACCGGAUGUGCUUUCCGGUCUUAUGAGUCCGUGAGGACGACACAG [G22U A41C]	0.372
UCCGGAUGUGCUUUCCGGUCUGAUGAGUCCGUGAGGAUGAAACAG [A1U C38U]	0.583
ACCGUAUGUGCUUUCCGGUCUGAUGAGUCCGGGAGGACGAAACAG [G5U U32G]	0.367
ACCGGAUGUGCUUUCCGGUCUGAUGAGUCCGUGAGGACGACACAG [A41C]	0.376
ACCGGAUGUGCUUUCCGGUCUGAUGAGUCCGUGAGAUCGAAACAG [G36A A37U]	0.533
ACCGGAUGUGCCUUCCGGUCUGAUGAGUCCGUGAGAACGAAACAG [U12C G36A]	0.55
ACUAGAUGUGCUUUCCGGUCUGAUGAGUCCGUGAGGACGAAACAG [C3U G4A]	0.387
ACCGGAUGUGCUUUCCGGUCUGAUGAGUGCGUGAGGACGACACAG [C29G A41C]	0.269
ACCGGAUGUGCUUUCGGGUCUGUUGAGUCCGUGAGGACGAAACAG [C16G A23U]	0.295
ACCGGAUGUGCUUUCCCGUUUGAUGAGUCCGUGAGGACGAAACAG [G17C C20U]	0.331

Variant	self-cleavage
ACCGGAUGUGCUUUCCGGUCUGAUGAGUCCGUGCGGACAAAACAG [A34C G39A]	0.288
ACCGGAUGUGCUUUCCGAUCUGAUGUGUCCGUGAGGACGAAACAG [G18A A26U]	0.423
ACCGGUUGUGCUUUCCGGUCUGAUGAGUCCGGGAGGACGAAACAG [A6U U32G]	0.559
ACCGGAUGUGCUUUCCGGUCAGAUGAGUUCGUGAGGACGAAACAG [U21A C29U]	0.558
ACCGGAUGUGCUUUCCGGUCUGAAGAGUCCGUGAGGACGAAAUAG [U24A C43U]	0.518
ACCGGAUGUGCUUUCCGGUCUGAUGAGUUCGUGAGGACGAAGCAG [C29U A42G]	0.283
ACCGGAUGUGCUUUCCGUUCUGAUUAGUCCGUGAGGACGAAACAG [G18U G25U]	0.324
ACCGGAUGUGCUUUCCUGUCUGAUGAGUCCUUGAGGACGAAACAG [G17U G31U]	0.834
ACCGGAUGUGCUUUCCGGUCUGAUGAGUCCCUGAGGACGAAAGAG [G31C C43G]	0.34
ACCGGAUGUGCUUUCCGGUCUGAUGAGUACGUGAGGACGUAACAG [C29A A40U]	0.314
ACCGGAUGUGCUUUCCGGUCUGAUGAGUCCGUGAGGACCAAACAA [G39C G45A]	0.359
ACCGGAUUUGCUUUCCGGACUGAUGAGUCCGUGAGGACGAAACAG [G8U U19A]	0.398
ACCGGAUAUGCUUUCCGGUCUGAUGAUUCCGUGAGGACGAAACAG [G8A G27U]	0.451
ACCGGAUGUGCUUUCCGGUCUGAUAAGUCCGUGAGGACGCAACAG [G25A A40C]	0.368
ACCGGAUGUGCUUUCCGGUUUGAUGAGUCCGUGAGGACGAAAAAG [C20U C43A]	0.264
ACCGGAUGUGCUUUCCGGUAUGAUGAGUCCGUGAGGACGAAACAG [C20A]	0.541
ACCGGAGGUGCUUUCCGGUCUGAUGAGUCCGUAAGGACGAAACAG [U7G G33A]	1.34
ACCGGAUGUGCUUUCCGGUCUGAUGACUCCGUGAGGACGAAACCG [G27C A44C]	0.38
ACCGGAUUUGCUUUCCGGUAUGAUGAGUCCGUGAGGACGAAACAG [G8U C20A]	0.571
ACCGGAUGUGCUUUCCGGUCUGAUGAGUCGGUGAGGACGAAACAC [C30G G45C]	0.608
AUCGGAUGUACUUUCCGGUCUGAUGAGUCCGUGAGGACGAAACAG [C2U G10A]	1.22
ACCGGAUGUGCUUUCCGGUCUGAUUAGGCCGUGAGGACGAAACAG [G25U U28G]	0.314
ACCGGAUGUGCUUUCCGGUCUGAUGAGUCCGUAAGGACGAAAUAG [G33A C43U]	0.816

Variant	self-cleavage
ACCGGAAGUGCUUUCCGGUCUGAUGAGUCCGUGAGGACAAAACAG [U7A G39A]	0.27
ACCGGAUGUGCUUUCCGGUCUGAUGAGUCCGUCUGGACGAAACAG [G33C A34U]	1.33
ACCGGAUGUGCUUUCCGGUCUGAUGAGUCCGUGAGGAGGAAACAU [C38G G45U]	0.562
ACCGGAUGUGCUUUCCGGUCUGCUGUGUCCGUGAGGACGAAACAG [A23C A26U]	0.33
ACCGGAUGUGCUUUCCGGUCUGCUGGGUCCGUGAGGACGAAACAG [A23C A26G]	0.212
ACCGGAUGUGCUUUCCGGUCUUAUGAGUCCGUGAGGACGAAGCAG [G22U A42G]	0.285
ACCGGAUGUGCUUACCGGUCUGAUAAGUCCGUGAGGACGAAACAG [U14A G25A]	0.28
ACCGGAUGUGCUUACCGGUCUGAUUAGUCCGUGAGGACGAAACAG [U14A G25U]	0.297
ACCGGAUUUGCUUUCCGGUCUGAUGUGUCCGUGAGGACGAAACAG [G8U A26U]	0.935
ACCGGAUUUGCUUUCCGGUCUGAUGAGUCCGUGGGGACGAAACAG [G8U A34G]	0.927
ACCGGAUGUGCUUUCCAGUCUGAUGAGUCCGUGAGCACGAAACAG [G17A G36C]	0.263
CCCGGAUGUGCUUUCCGGUCUGAUGAGUCAGUGAGGACGAAACAG [A1C C30A]	0.4
ACAGGAUGUGCUUUCCGGUCUGAAGAGUCCGUGAGGACGAAACAG [C3A U24A]	0.811
UCCGGAUGUGCUUUCCAGUCUGAUGAGUCCGUGAGGACGAAACAG [A1U G17A]	0.421
ACCGGAUGUGCUUUCCGGUCUGAUAAGUCCGUGAGGACGAAACAC [G25A G45C]	0.447
ACCGGAUGGGCUUUCCGGUCUGAUGAGUCCUUGAGGACGAAACAG [U9G G31U]	0.51
ACCGGAUGUGCUUUCCGGUCUGAUGAGUCCGUGUGGACGAAACAA [A34U G45A]	0.477
ACCGGAUGUGCUAUCCGGUCUGAUUAGUCCGUGAGGACGAAACAG [U13A G25U]	0.277
ACCGGAUGUGCUAUCCGGUCUGAUCAGUCCGUGAGGACGAAACAG [U13A G25C]	0.327
ACCGGAUGUGCUUUACGGUCUCAUGAGUCCGUGAGGACGAAACAG [C15A G22C]	0.3
ACCGGAUGUGCUUUCCGGUCUGAUGUGUCCGUGAGGACCAAACAG [A26U G39C]	0.378
ACCGGAUGUGCUUUCAGGUCUGAUGAGUCCGUGAGGACGAAAAAG [C16A C43A]	0.304
